The source of these data is patent publication US20100256070A1.

This series deals with Diphtheria toxin anti-CD5 ScFv fusion protein bearing a granzyme B cleavage sequence.

B1: mouse granzyme B (protein)
chain: IIGGHEVKPHSRPYMALLSIKDQQPEAICGGFLIREDFVLTAAHCEGSIINVTLGAHNIKEQEKTQQVIPMVKCIPHPDYNPKTFSNDIMLLKLKSKAKRTRAVRPLNLPRRNVNVKPGDVCYVAGWGRMAPMGKYSNTLQEVELTVQKDRECESYFKNRYNKTNQICAGDPKTKRASFRGDSGGPLVCKKVAAGIVSYGYKDGSPPRAFTKVSSFLSWIKKTMKSS
Take B1: the “in vitro cleavage by granzyme B (gel)” value is “only a small fraction of DT and PEA fusion proteins was cleaved”.
